# Source: the Human Domainome abundance scans (Beltran et al. 2025)
# ± gives the uncertainty stated by the source.
# B1: Homeobox protein cut-like 1, residues 548 to 629; numbered along this chain, P39880 (parent)
# chain: GEEMDTAEIARQVKEQLIKHNIGQRIFGHYVLGLSQGSVSEILARPKPWNKLTVRGKEPFHKMKQFLSDEQNILALRSIQGR
# Variants of: B1
# Assay: abundance fitness (aPCA) (normalised: wild type 0, dead -1); higher = more abundant; growth selection in yeast, the domain comes from the species named
# Conditions: Homo sapiens
row,Variant,abundance fitness
1,GEEMDTAEIARQVKEQLIKHNIGQRIFGHYVLGLSQGSVSEILARPKPWNKLTVRGKEPFHKMKQFGSDEQNILALRSIQGR,-0.848 ± 0.04
2,GEEMDTAEIARQVKEQLIKHNIGQRIFGHYVLGLSQGSVSEILARPKPWNKLTVRGKEPFHKMKQFYSDEQNILALRSIQGR,-0.609 ± 0.16
3,GEEMDTAEIARQVKEQLIKHNIGQRIFGHYVLGLSQGSESEILARPKPWNKLTVRGKEPFHKMKQFLSDEQNILALRSIQGR,-0.456 ± 0.035
4,GEEMDTAEIARQVKEQLIKHNIGQRIFGHYVLGLSQGSVSEILARPKPWNKLTVRGKEPFHKMKSFLSDEQNILALRSIQGR,-0.059 ± 0.033
5,GEEMDTAEIARQVKEQLIKHNIGQRIFGHYVLGLSQGSVSEILARPKPWNKLTVRGKEPFHKMKTFLSDEQNILALRSIQGR,-0.029 ± 0.037
6,GEEMDTAEIARQVKEQLIKHNIGQRIFGHYVPGLSQGSVSEILARPKPWNKLTVRGKEPFHKMKQFLSDEQNILALRSIQGR,-0.894 ± 0.084
7,GEEMDTAEIARQVKEQLIKHNIGQRIFGHCVLGLSQGSVSEILARPKPWNKLTVRGKEPFHKMKQFLSDEQNILALRSIQGR,-0.065 ± 0.046
8,GEEMDTAEIARQVKEQLIKHNIGQRIFGHYVLGLSQGSVSEILARPKPTNKLTVRGKEPFHKMKQFLSDEQNILALRSIQGR,-0.509 ± 0.31
9,GEEMDTAEIARQVKEQLIKHNIGQRIFGHYVLGLSQGSVSEILARPKPWNKLTVGGKEPFHKMKQFLSDEQNILALRSIQGR,-0.011 ± 0.023
10,GEEMDTAEIARQVKEQLIKHNIGQRIFGHYVLGLSQGSVSEILARPKPWNKLTVRGKEPFHKMKQFLSDEQNILADRSIQGR,-0.716 ± 0.092
11,GEEMDTAEIARQVKEQLIKHNIGQRIFGHYVLGLSQGSVSEILARPKPWNKLTVRGKEPFHKMKQFLSDEQNILAVRSIQGR,-0.357 ± 0.035
12,GEEMDTAEIARQVKEQLIKHNIGQRIFGHYVLGLSQGSVSEILARPKPWNKLTVRGKEPFYKMKQFLSDEQNILALRSIQGR,0.067 ± 0.055
13,GEEMDTAEIARQVKEQLIKHNIGQRIFGHYVLGLSQGSVSEILARPKPWNKLTVRGKEPFHKMKQFLSWEQNILALRSIQGR,-0.387 ± 0.039
14,GEEMDTAEIARQVKEQLIKHNIGQRIFGHYVLGLSQGSVSEILARPKPWNKLTVRGKEPFHKMKQFLSDEQNILALRSIQGG,0.117 ± 0.035
15,GEEMDTAEIARQVKEQLIKHNIGQRIFGHYVLGLSQGSVSEILARPKPWNKLTVRGKEPFHKMKQFLSDEQNILALRSIQGV,0.024 ± 0.046
16,GEEMDTAEIARQVKEQLIKHNIGQRIFGHYVLGLSQGSVSEILARPKPWNKLTVRGKEPFHKMKQFLSDEQNLLALRSIQGR,-0.064 ± 0.033
17,GEEMDTAEIARQVKEQLIKHNIGQRIFGHYVLGLSQGSVSEILARPKPWNKLTVRGKEPFHKMKQFLSDEQNRLALRSIQGR,-0.56 ± 0.034

row,Variant,abundance fitness
1,GEEMDTAEIARQVKEQLIKHNIGQRIFGHYVLGLSQGSVSEILARPKPWNKLTVRGKEPFHKMKQFLSDEQNTLALRSIQGR,-0.163 ± 0.039
2,GEEMDTAEIARQVKEQLIKHNIGQRIFGHYVLGLSQGSVSEILARPKPWNKLTVRGKEPFHKMKQFLSDEQNMLALRSIQGR,-0.064 ± 0.038
3,GEEMDTAEIARQVKEQLIKHNIGQRIFGHYVLGLSQGSVSEILARPKPWNKLTVRGKEPFHKMKQFLSDEQNVLALRSIQGR,0.038 ± 0.029
4,GEEMDTAEIARQVEEQLIKHNIGQRIFGHYVLGLSQGSVSEILARPKPWNKLTVRGKEPFHKMKQFLSDEQNILALRSIQGR,-0.282 ± 0.16
5,GEEMDTAEIARQVKEQLIKENIGQRIFGHYVLGLSQGSVSEILARPKPWNKLTVRGKEPFHKMKQFLSDEQNILALRSIQGR,-0.503 ± 0.036
6,GEEMDTAEIARQVKEQLIKHNIGQRIFGHYVLGLSQGSVSEILARPKSWNKLTVRGKEPFHKMKQFLSDEQNILALRSIQGR,-0.168 ± 0.036
7,GEEMDTAEIARQVKEQLIKHNIGQYIFGHYVLGLSQGSVSEILARPKPWNKLTVRGKEPFHKMKQFLSDEQNILALRSIQGR,-0.003 ± 0.06
8,GEEMDTAEIARQVKEQLIKHNIGQRIFGHYVLGLSQGSVSEILARKKPWNKLTVRGKEPFHKMKQFLSDEQNILALRSIQGR,-0.938 ± 0.12
9,GEEMDTAEIARQVKEQLIKHNIGQRIFGHYVLGLSQGSVSEILARPKPWNKLTVRGKEPFHKMKQFLSDEQNINALRSIQGR,-0.064 ± 0.059
10,GEEMDTAEIARQVKEQLIKHNIGQRIFGHYVLGLSQGSVSEILARPKPWNKLTVRGKEPFHKMKQFLSDEQNIIALRSIQGR,0.032 ± 0.052
11,GEEMDTAEIARQVKEQLIKHNIGQRIFGHYVLGLSQGKVSEILARPKPWNKLTVRGKEPFHKMKQFLSDEQNILALRSIQGR,0.061 ± 0.03
12,GEEMDTAEIARQVKEQLIKHNIGQRIFGHYVLGLSQGSVSEILARPKPWNKLTVRGKEGFHKMKQFLSDEQNILALRSIQGR,-0.024 ± 0.024
13,GEEMDTAEIARQVKEQLIKHNIGQRIFGHYVLGLSQGSVSEILARPKPWNKLTVRGKEPFHKMKQFLSDPQNILALRSIQGR,0.026 ± 0.044
14,GEEMDTAEIARQVKEQLIKHNIGQRIFGHYVLGLSLGSVSEILARPKPWNKLTVRGKEPFHKMKQFLSDEQNILALRSIQGR,0.008 ± 0.032
15,GEEMDTAEIARQVKEQLIKHNIGQRIFGHYVLGLSQGSVSEILARPKPWNKLTVRGKEPFHKMKQFLTDEQNILALRSIQGR,-0.122 ± 0.038
16,GEEMDTAEIARQVKEQLIKHNIGQRIRGHYVLGLSQGSVSEILARPKPWNKLTVRGKEPFHKMKQFLSDEQNILALRSIQGR,-0.884 ± 0.043
17,GEEMDTAEIARQVKEQLIKHNIGQRIFGHYVLGLSQGSVSEILARPKPWNKLTVRGKSPFHKMKQFLSDEQNILALRSIQGR,-0.252 ± 0.035
